Source: US20240294670A1 (University of Texas, published 2024)

Tests used:
Experiment in all cases: anti-His co-IP of rCHI3L1 from Kupffer cell lysate, MS; listed under 'proteins bound to CHI3L1'
Q3UA81_MOUSE = target: T1, Q3UA81_MOUSE (mouse, UniProt Q3UA81 2-462)
T1 construct: also called tr|Q3UA81|Q3UA81_MOUSE
T1 sequence: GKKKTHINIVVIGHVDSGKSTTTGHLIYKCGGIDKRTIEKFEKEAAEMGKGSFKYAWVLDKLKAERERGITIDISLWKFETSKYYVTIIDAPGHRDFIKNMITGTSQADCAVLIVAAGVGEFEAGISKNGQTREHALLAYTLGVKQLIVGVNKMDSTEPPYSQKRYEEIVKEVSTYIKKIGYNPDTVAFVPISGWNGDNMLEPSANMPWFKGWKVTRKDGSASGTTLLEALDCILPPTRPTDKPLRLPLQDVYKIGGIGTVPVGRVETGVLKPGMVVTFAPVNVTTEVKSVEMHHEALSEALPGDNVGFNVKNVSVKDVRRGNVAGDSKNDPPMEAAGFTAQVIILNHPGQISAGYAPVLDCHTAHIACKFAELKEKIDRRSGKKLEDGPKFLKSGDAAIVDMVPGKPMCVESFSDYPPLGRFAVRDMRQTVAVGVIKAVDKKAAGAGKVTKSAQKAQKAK
Procedure: (§1) CHI3L1 interacts with CD44 on KCs. To further understand how CHI3L1 mediates the function of KCs to recruit platelets, the inventors set out to identify its receptor on KCs. They isolated KCs from WT mice treated with APAP for 3 h and incubated the cells with His-tagged rCHI3L1. The cell lysate was subjected to immunoprecipitation using an anti-His antibody. The “pulled down” fraction was subjected to LC/MS analyses. A partial list of proteins identified, including CHI3L1 itself, is shown in (Extended Data Table 1). Because CD44 is a cell membrane protein, the inventors decided to investigate it is a receptor for CHI3L1. They performed/immunoprecipitation experiments using liver homogenates obtained from WT and CD44^{-/-} mice after APAP treatment. […] Moreover, the inventors incubated rhCHI3L1 with human CD44 and then immunoprecipitated with an anti-CD44 antibody. The data confirmed a direct binding between CHI3L1 and CD44 (FIG. 3C). Consistent with the notion that many cell types express CD44, they detected CD44 express on various hepatic non-parenchymal cells (NPCs) except B cells and DCs (summarized in Extended Data Table 2). However, when they incubated liver NPCs with His-tagged rCHI3L1, the inventors observed that the only CD44-expressing cells that could bind to CHI3L1 were KCs (FIG. 3D).

Q3TVM2_MOUSE = target: T2, Q3TVM2_MOUSE (mouse, UniProt Q3TVM2 20-519)
T2 construct: also called tr|Q3TVM2|Q3TVM2_MOUSE
T2 sequence: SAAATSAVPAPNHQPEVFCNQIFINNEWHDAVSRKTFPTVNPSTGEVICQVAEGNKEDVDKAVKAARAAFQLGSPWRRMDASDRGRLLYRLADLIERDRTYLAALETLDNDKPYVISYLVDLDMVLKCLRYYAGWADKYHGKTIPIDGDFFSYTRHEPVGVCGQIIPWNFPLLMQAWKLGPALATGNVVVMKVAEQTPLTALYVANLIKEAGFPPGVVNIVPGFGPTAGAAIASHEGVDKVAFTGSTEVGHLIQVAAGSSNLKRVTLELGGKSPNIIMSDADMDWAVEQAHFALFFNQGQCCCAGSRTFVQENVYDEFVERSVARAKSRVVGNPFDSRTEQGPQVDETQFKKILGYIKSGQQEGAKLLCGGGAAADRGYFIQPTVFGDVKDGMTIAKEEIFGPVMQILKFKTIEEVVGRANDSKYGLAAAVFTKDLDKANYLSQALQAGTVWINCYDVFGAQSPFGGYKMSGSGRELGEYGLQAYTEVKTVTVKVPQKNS
Procedure: as §1

Q546G4_MOUSE = target: T3, Q546G4_MOUSE (mouse, UniProt Q546G4 25-608)
T3 construct: also called sp|Q546G4|Q546G4_MOUSE
Procedure: as §1

Q3UEQ9_MOUSE = target: T4, Q3UEQ9_MOUSE (mouse, UniProt Q3UEQ9 28-926)
T4 construct: also called tr|Q3UEQ9|Q3UEQ9_MOUSE
T4 sequence: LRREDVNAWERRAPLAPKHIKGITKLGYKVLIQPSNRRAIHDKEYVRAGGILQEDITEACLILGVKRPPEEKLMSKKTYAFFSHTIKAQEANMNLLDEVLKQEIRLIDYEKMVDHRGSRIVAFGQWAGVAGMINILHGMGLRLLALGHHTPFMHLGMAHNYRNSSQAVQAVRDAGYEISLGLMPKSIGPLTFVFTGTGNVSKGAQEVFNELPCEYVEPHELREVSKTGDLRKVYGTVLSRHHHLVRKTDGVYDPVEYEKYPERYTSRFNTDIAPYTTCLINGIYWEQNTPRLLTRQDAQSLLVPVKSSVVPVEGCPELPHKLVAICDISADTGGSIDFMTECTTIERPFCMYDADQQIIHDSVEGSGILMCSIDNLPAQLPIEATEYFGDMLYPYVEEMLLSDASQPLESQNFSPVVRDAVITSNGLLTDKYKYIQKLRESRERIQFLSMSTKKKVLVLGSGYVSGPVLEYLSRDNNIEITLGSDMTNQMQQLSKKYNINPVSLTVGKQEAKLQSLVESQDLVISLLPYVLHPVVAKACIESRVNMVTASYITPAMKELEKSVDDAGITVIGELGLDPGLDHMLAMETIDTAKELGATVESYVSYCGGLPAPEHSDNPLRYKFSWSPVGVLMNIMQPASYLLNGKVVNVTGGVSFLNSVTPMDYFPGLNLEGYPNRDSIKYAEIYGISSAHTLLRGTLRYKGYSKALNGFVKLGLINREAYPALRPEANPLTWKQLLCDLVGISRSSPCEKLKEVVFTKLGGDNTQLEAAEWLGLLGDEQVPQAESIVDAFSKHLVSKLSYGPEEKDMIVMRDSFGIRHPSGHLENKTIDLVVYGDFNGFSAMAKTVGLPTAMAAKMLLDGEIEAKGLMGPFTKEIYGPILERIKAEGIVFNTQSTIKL
Procedure: as §1

Measured: binding result

B1: recombinant mouse CHI3L1 (ligand)
chain: not shown
notes: His-tagged; also called mCHI3L1; mChi3l1
binds: all assays above
